Data on five molecules can be found in paper PMC6192195, “Hampered motility promotes the evolution of wrinkly phenotype in Bacillus subtilis” (BMC Evolutionary Biology, 2018).

Bounds are passed on as bounds.

The labels stand for the following.
B3: SinR (wild type), master repressor of biofilm-related genes (natural protein, Bacillus subtilis)
chain: MIGQRIKQYRKEKGYSLSELAEKAGVAKSYLSSIERNLQTNPSIQFLEKVSAVLDVSVHTLLDEKHETEYDGQLDSEWEKLVRDAMTSGVSKKQFREFLDYQKWRKSQKEE
notes: SinR of Bacillus subtilis; Tetramer by analytical SEC; also called SinR^WT; wildtype SinR; source: E. coli BL21(DE3), purified (Ni-NTA, SEC)
B4: SinR-L99S variant (natural protein, Bacillus subtilis)
chain: MIGQRIKQYRKEKGYSLSELAEKAGVAKSYLSSIERNLQTNPSIQFLEKVSAVLDVSVHTLLDEKHETEYDGQLDSEWEKLVRDAMTSGVSKKQFREFSDYQKWRKSQKEE
notes: SinR of Bacillus subtilis with L99S, made by two-step PCR mutagenesis of the sinR construct in pET24d; L99S arose spontaneously in the wrinkly isolates (WTWS1, ΔhagWS2) during pellicle growth in the laboratory; the recombinant protein was made by site-directed mutagenesis; Tetramer by analytical SEC; source: E. coli BL21(DE3), purified (Ni-NTA, SEC)

One data set concerns the target SinI (Bacillus subtilis) (UniProt P23308). Conditions: cited from earlier work.
Data set [1] has as its target T1, SinR (Bacillus subtilis 168 (sequence …, UniProt P06533 1-111)).
T1 sequence: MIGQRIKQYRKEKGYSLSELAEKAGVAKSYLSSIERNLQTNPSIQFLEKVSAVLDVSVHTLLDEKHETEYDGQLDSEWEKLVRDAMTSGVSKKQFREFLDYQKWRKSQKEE
Briefly: ITC; binding site 1 of two-sites model; N1 = 0.264 +/- 0.0114; ITC: buffer C (20 mM HEPES/NaOH, 500 mM NaCl; pH not stated for buffer C, 8.0 for buffers A/B), 25 °C; 30 µM SinR in cell, 150 µM IR-DNA titrated in. Conditions: protein: recombinant; tags: C-terminal His6; chain copies: 4; blunt. Background: Isothermal titration calorimetry measures the heat released or taken up as one component is titrated into another.

Data set [2] has as its target T1, SinR. Briefly: ITC; binding site 2 of two-sites model; N2 = 0.143 +/- 0.0123; ITC: buffer C (20 mM HEPES/NaOH, 500 mM NaCl; pH not stated for buffer C, 8.0 for buffers A/B), 25 °C; 30 µM SinR in cell, 150 µM IR-DNA titrated in. Conditions: protein: recombinant; tags: C-terminal His6; chain copies: 4; blunt.
The next data set addresses T2, SinR-L99S (Bacillus subtilis 168 (sequence …, UniProt P06533 1-111, L99S)).
T2 sequence: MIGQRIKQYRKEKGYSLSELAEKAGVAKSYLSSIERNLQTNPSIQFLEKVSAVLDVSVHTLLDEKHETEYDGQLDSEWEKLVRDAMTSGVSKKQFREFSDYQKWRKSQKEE
Put plainly: ITC; binding site 1 of two-sites model; comparable to wild type; ITC: buffer C (20 mM HEPES/NaOH, 500 mM NaCl; pH not stated for buffer C, 8.0 for buffers A/B), 25 °C; 30 µM SinR in cell, 150 µM IR-DNA titrated in. Conditions: protein: recombinant; tags: C-terminal His6; chain copies: 4; blunt.

Data set [3] has as its target T3, SinR (wild type), master repressor of biofilm-related genes (Bacillus subtilis, UniProt P06533 1-111).
T3 chain: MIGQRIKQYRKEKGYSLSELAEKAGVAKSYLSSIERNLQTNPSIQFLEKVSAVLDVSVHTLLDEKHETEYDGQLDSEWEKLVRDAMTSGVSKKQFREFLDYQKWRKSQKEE
Put plainly: ITC.

Data set [4] deals with T4, SinR-L99S variant (Bacillus subtilis, UniProt P06533 1-111, L99S).
T4 sequence: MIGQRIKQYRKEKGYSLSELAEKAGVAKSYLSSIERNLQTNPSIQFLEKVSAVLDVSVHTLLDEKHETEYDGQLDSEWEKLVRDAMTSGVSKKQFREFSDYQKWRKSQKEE
Put plainly: ITC; first site (two-site model).

Data set [5] addresses T4, SinR-L99S variant. Put plainly: ITC; second site (two-site model).
Data set [6] addresses B3. Briefly: ITC; 250 uM SinI 9-39 peptide titrated into 25 uM SinR or SinR-L99S in the cell, 25 °C, buffer C (20 mM HEPES/NaOH, 500 mM NaCl); apparent KD; one-site model for wild type, two-sites model for L99S. Conditions: both partners purified.
Data set [7] addresses B4. The data set is described as above. Conditions: both partners purified.
Data set [8] deals with the molecule itself. Put plainly: SEC; analytical SEC, Superdex 200 Increase 10/300 GL; SinR or SinR-L99S alone (tetrameric state also seen with IR-DNA).

Sequence of SinI (Bacillus subtilis) (P23308 whole entry): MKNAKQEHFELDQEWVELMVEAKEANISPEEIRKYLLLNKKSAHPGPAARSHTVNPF

With SinR (from UniProt P06533), the Kd with SinI (Bacillus subtilis) is < 10 nM.

B1: IR-DNA (SinR operator inverted repeat) (dsDNA)
DNA 1: TTTGTTCTCTAAAGAGAACTTA
DNA 2: TAAGTTCTCTTTAGAGAACAAA
As for B1, the Kd with SinR [1] is ~121 nM; with SinR [2], ~6 nM; with SinR-L99S it was ~99 nM.

B2: SinI^9-39 peptide (SinI protein from amino acid 9 to 39) (peptide, UniProt P23308 9-39, looked up)
peptide: FELDQEWVELMVEAKEANISPEEIRKYLLLN
notes: SinI, antagonist (anti-repressor) of SinR, Bacillus subtilis, amino acids 9-39; Synthesized with a free amine at the N-terminus and a free acid group at the C-terminus; also called SinI peptide; truncated version of SinI; source: synthetic peptide (peptides&elephants GmbH)
In the case of B2, the Ka in [3] came to 1.41e+08 M⁻¹. In the data set with SinR-L99S variant [4], this molecule registered a Ka of 6.16e+06 M⁻¹. In the data set with SinR-L99S variant [5], the Ka stood at 1.75e+06 M⁻¹. Further, in data set [6], the Kd was ~7 nM, the dH is -3.75 ± 0.136 kcal/mol and the “stoichiometry N” value stood at 1.2 ± 0.02. In the data set with SinR-L99S variant [7], the “KD site 1” value was ~162 nM, the “KD site 2” value was ~571 nM, the “dH binding event 1” value is -3.93 ± 1.45 kcal/mol and the “dH binding event 2” value is -15.2 kcal/mol. In addition, the “stoichiometry N” value with SinR-L99S variant [7] was ~1.35.

B3: the “stoichiometry N” value in data set [8] was 4.

Regarding B4, in [8], the “stoichiometry N” value amounted to 4.

What is called stoichiometry N is a count of units in the complex or per binding partner.
